Where a SMILES comes first, the peptide text is derived from it. Bridges are numbered along the chain shown (N, C = ends). Where no end group is shown, it is not given here. [ ]: non-standard residue; d: D form. NMeR = CN[C@@H](CCCNC(=N)N)C(=O)O; Pen = CC(C)(S)[C@H](N)C(=O)O

The text below walks through data of patent publication US20190002500A1, “NOVEL a4B7 PEPTIDE DIMER ANTAGONISTS” (Protagonist Therapeutics, Inc., priority 2013, published 2019).

Data set [1] can be described thus: Simulated Intestinal Fluid (SIF) Stability Assay. To be noted: for stability in simulated intestinal fluids (SIF): substitution of Cys with Pen, compared to SEQ ID NO: 46 with Cys. Type of data set: in vitro ADME. The procedure: Simulated Intestinal Fluid (SIF) Stability Assay
Studies were carried out in simulated intestinal fluid (SIF) to evaluate gastric stability of the dimer molecules of the instant invention. SIF was prepared by adding 6.8 g of monobasic potassium phosphate and 10.0 g of pancreatin to 1.0 L of water. After dissolution, the pH was adjusted to 6.8 using NaOH. DMSO stocks (2 mM) were first prepared for the test compounds. Aliquots of the DMSO solutions were dosed into 6 individual tubes, each containing 0.5 mL of SIF, which had been pre-warmed to 37° C.
The final test compound concentration was 20 μM. The vials were kept in a benchtop Thermomixer® for the duration of the experiment. At each timepoint (0, 5, 10, 20, 40, and 60 minutes), 1.0 mL of acetonitrile containing 1% formic acid was added to one vial to terminate the reaction. Samples were stored at 4° C. until the end of the experiment. After the final timepoint was sampled, the tubes were mixed and then centrifuged at 3,000 rpm for 10 minutes. Aliquots of the supernatant were removed, diluted 1:1 into distilled water containing internal standard, and analyzed by LCMS/MS. Percent remaining at each timepoint was calculated based on the peak area response ratio of test to compound to internal standard. Time 0 was set to 100%, and all later timepoints were calculated relative to time 0. Half-lives were calculated by fitting to a first-order exponential decay equation using Graphpad. A small sampling of the results of these studies is provided and discussed in connection FIG. 3, above.

A further data set can be described thus: FIG. 3. From the text: Table printed on a drawing sheet, FIG. 3
First reader's note: The sequence is split into one residue per column (positions 4-11 plus one unnumbered column), and SEQ ID 39 is printed twice.

In the case of “SEQ ID NO: 74: integrin antagonist homodimer of monomer subunit SEQ ID NO: 74, Cys substituted with Penicillamine (Pen) (C[NMeR]SDTL[Pen]E[dK]; disulfide 1-7; also: homodimer, link not given here)”, in data set [1], the “stability in simulated intestinal fluids (SIF)” value is recorded as “increased stability significantly”.

On to “SEQ ID NO: 55: integrin antagonist homodimer of monomer subunit SEQ ID NO: 55, Cys substituted with Penicillamine (Pen) (C[NMeR]SDTL[Pen][dK]; disulfide 1-7; also: homodimer, link not given here)”, for which, in data set [1], the “stability in simulated intestinal fluids (SIF)” value is on record as “increased stability significantly”.

As for “SEQ ID NO: 46: integrin antagonist homodimer of monomer subunit SEQ ID NO: 46 (Cys, N-terminally dimerized); N(alpha)Methylated and non-methylated variations (CRSDTLC; disulfide 1-7; not fully specified (residue 2); also: homodimer linked at N-termini) [listing 1 of 2 here]”, the “half-life in SIF” value in data set [1] (substitution of arginine with N-Me-Arg, N(alpha)Methylated vs non-methylated variation) is listed as “increased half-life substantially”.

Regarding `CC(=O)N[C@H]1CSSC[C@@H](C(N)=O)NC(=O)[C@H](CC(C)C)NC(=O)[C@H]([C@@H](C)O)NC(=O)[C@H](CC(=O)O)NC(=O)[C@H](CO)NC(=O)[C@H](CCCNC(=N)N)NC1=O` [compound 39, Ac-C R S D T L C-NH2] (Ac-CRSDTLC-NH2; disulfide 1-7), the “SIF Stability (Half-Life, Min)” value in the data set “FIG. 3” was below 1 min.

Consider “SEQ ID NO: 46: integrin antagonist homodimer of monomer subunit SEQ ID NO: 46 (Cys, N-terminally dimerized); N(alpha)Methylated and non-methylated variations (CRSDTLC; disulfide 1-7; not fully specified (residue 2); also: homodimer linked at N-termini) [listing 2 of 2 here]”, for which the “SIF Stability (Half-Life, Min)” value in the data set “FIG. 3” stood at 73 min.
